According to patent US20020095023A1 (published 2002):
Ends that are not written are not given here.

B1: Recombinant rat HRF (IgE-dependent histamine-releasing factor) (ligand, UniProt P63029 1-172, looked up)
chain: MIIYRDLISHDELFSDIYKIREIADGLCLEVEGKMVSRTEGAIDDSLIGGNASAEGPEGEGTESTVVTGVDIVMNHHLQETSFTKEAYKKYIKDYMKSLKGKLEEQKPERVKPFMTGAAEQIKHILANFNNYQFFIGENMNPDGMVALLDYREDGVTPFMIFFKDGLEMEKC
notes: Expressed in E. coli from pRSET-A and purified on a Ni column; also called recombinant HRF protein; translationally controlled tumor protein; not shown: N-terminal His-tag leader of the pRSET-A vector
B2: phage ph4 displaying peptide p4 (peptide)
peptide: WEFPGWM
modifications: also: displayed on phage coat protein
notes: Whole phage particle in the assay; not shown: phage coat protein of the heptamer library (New England Biolabs); linker and coat protein not described
B3: phage ph2 displaying peptide p2 (peptide)
peptide: WYVYPSM
modifications: also: displayed on phage coat protein
notes: Whole phage particle in the assay; also called ph2 clone; not shown: phage coat protein of the heptamer library (New England Biolabs); linker and coat protein not described

How the values were obtained:
[1] = biological target: B1; assay: competition ELISA on HRF-coated wells against phage ph2, anti-M13-HRP
Procedure: (§1) Also, as a negative control, random peptide (ran, amino acid sequence: LMEGCRA) was synthesized. To the wells coated with HRF was added each 30 μl of the peptide solution serially diluted in 6% BSA/PBS from 1000 nM (1000, 100, 10, 1, 0.1, 0.01, 0.001 nM) and the solution was allowed to stand at room temperature for 30 minutes. The 1/25-fold diluted phage solution was added thereto and the whole solution was further allowed to stand for 2 hours. The solution was washed five times with PBST and then, each 100 μl of HRP-conjugated anti-M13 antibodies were added thereto and then, the resulting mixture was allowed to stand for 1 hour. The mixture was washed 6 times with PBST and once with PBS, and thereto was added each 100 μl of peroxydase substrate solution to examine the competition. It can be seen from the above figures that both of the synthetic peptides p2 and p4 bind to HRF competitively with phage clones ph2 and ph4.
b) In order to test whether or not p1, p2 and p4 bind to the identical site on HRF, the wells were coated with HRF according to the substantially same procedure as in the above a). As shown FIG. 14c, p1, p2 and p4 bound to the identical site on HRF.

[2] = biological target: T1, (Na,K)ATPase as flowed in the Biacore analysis; assay: Biacore (SPR); HRF immobilised on CM5 sensor chip, (Na,K)ATPase flowed
T1 construct: domain: large cytoplasmic loop; also called (Na,K)ATPase large cytoplasmic loop
Procedure: Recombinant rat HRF was immobilized on CM5 sensor chip at a concentration of […] in pH 4.0, 10 mM acetate and then, corrected by flowing HBS buffer (0.01 M Hepes, pH 7.4, 0.15 M NaCl, 3 mM EDTA, 0.005% surfactant P20). […] by flowing 50 mM NHS (N-hydroxysuccinimide) and 200 mM EDC(N-ethyl-N-(3-[…])carbodiimide). The binding affinity was measured by flowing (Na,K)ATPase.

BSA = biological target: T2, BSA (bovine, UniProt P02769); assay: phage ELISA on coated wells, anti-M13-HRP
T2 construct: control coating of the ELISA wells; also called bovine serum albumin
T2 sequence (P02769 25-607 limits assumed): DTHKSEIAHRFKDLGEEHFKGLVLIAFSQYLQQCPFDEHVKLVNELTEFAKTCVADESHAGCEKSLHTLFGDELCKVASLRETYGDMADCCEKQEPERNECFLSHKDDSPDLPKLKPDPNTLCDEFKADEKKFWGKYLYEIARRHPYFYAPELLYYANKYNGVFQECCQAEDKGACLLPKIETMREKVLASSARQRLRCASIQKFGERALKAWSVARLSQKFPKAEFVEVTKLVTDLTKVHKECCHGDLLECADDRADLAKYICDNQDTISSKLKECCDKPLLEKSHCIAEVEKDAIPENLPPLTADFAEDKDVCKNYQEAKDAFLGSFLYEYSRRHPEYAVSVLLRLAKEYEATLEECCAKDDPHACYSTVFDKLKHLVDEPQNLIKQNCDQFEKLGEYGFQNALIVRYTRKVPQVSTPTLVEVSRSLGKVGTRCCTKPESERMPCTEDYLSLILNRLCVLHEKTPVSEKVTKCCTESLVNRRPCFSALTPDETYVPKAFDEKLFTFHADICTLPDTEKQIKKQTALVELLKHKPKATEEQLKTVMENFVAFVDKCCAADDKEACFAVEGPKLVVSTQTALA
Procedure: That is, the phage plaques were transferred to 1 ml of ER2537 culture solution cultivated in SB medium (OD₆₀₀=0.5˜1) and then, cultured in 37° C. incubator (rpm 250) for 5 hours. Each 100 μl of the culture solution was added to 900 μl of SB medium and cultured overnight. The culture solution was centrifuged twice at 14,000 rpm for 5 minutes per centrifugation and the obtained supernatant was used for ELISA.
To plastic wells, each of which was coated with HRF or BSA (control), 50 μl of a solution obtained by diluting each isolated phage solution with the equivalent amount of 6% BSA/PBS, and the resulting mixture was allowed to stand for 2 hours. After washing five times with PBST, 100 μl of HRP-conjugated anti-M13 antibodies (Pharmacia) diluted in 3% BSA/PBS with the ratio of 1:5000 were added thereto and the whole was allowed to stand for 1 hour. After washing six times with PBST and then, once with PBS, 100 μl of peroxydase substrate solution was added thereto. The chromogenicity was measured using ELISA reader at 405 nm. From FIG. 12, it can be seen that the phages ph1, ph2 and ph4, especially ph2 and ph4, specifically bind to HRF.

[3] = biological target: B1; assay: competition ELISA on HRF-coated wells, peptide added before phage ph4 (1/25 dilution), anti-M13-HRP
Procedure: as §1

[4] = biological target: B1; assay: competition ELISA on HRF-coated wells, peptide added before phage ph2 (1/25 dilution), anti-M13-HRP
Procedure: as §1

Binder | IC50 (read off the curve) [1] [nM] | binding result (BSA) | other results
LVTYPLP [synthetic heptapeptide p1] | ~20 | – | –
B1 | – | – | Kd [2]: 850 nM
B2 | – | no binding | –
WEFPGWM [synthetic heptapeptide p4] | ~20 | – | IC50 (read off the curve) [3]: ~10 nM
B3 | – | no binding | –
WYVYPSM [synthetic heptapeptide p2] | – | – | IC50 (read off the curve) [4]: ~40 nM
